Where a chain is given by its changes, count along the chain named. Names and notes keep the numbering of the source. Like-named read-outs stand apart in the source and are kept apart here.

The record followed here is patent US20110086006.

Data set [1] relates to internally quenched fluorogenic peptide (FRET substrate), Ac-DED(EDANS)EEαAbuψ[COO]ASK(DABCYL)-NH2.
For data set [2], the system named is KK4A peptide (KKGSVVIVGRIVLSGK), central region of the NS4A cofactor from genotype 1a with lysine residues added for improved solubility.
In data set [3] the target is T1, internally quenched fluorogenic peptide (FRET substrate), Ac-DED(EDANS)EEαAbuψ[COO]ASK(DABCYL)-NH2.
T1 chain: DEDEEXASK

For data set [4], the target named is T2, KK4A peptide (KKGSVVIVGRIVLSGK), central region of the NS4A cofactor from genotype 1a with lysine residues added for improved solubility.
T2 chain: KKGSVVIVGRIVLSGK

With “wild type HCV NS3 serine protease domain, genotype 1a”, in data set [1], the Kcat is 1.2 s⁻¹, the Kcat/Km was 897000 M⁻¹ s⁻¹ and the Km stood at 1.3 µM. The “kinetic parameters for the FRET substrate” value in data set [2] is “Although the NS4A peptide co-factor was from HCV genotype 1a, no discernable difference in the kinetic parameters was observed”.

B1: D168V mutant HCV NS3 serine protease domain, genotype 1b (protein)
chain: APITAYSQQTRGLLGCIITSLTGRDRNQVEGEVQVVSTATQSFLATCVNGVCWTVYHGAGSKTLAGPKGPITQMYTNVDQDLVGWQAPPGARSLTPCTCGSSDLYLVTRHADVIPVRRRGDSRGSLLSPRPVSYLKGSSGGPLLCPSGHAVGIFRAAVCTRGVAKAVVFVPVESMETTMRSHHHHHH
For B1, in data set [3], the Kcat is 0.6 s⁻¹, the Kcat/Km turned out to be 498000 M⁻¹ s⁻¹ and the Km was determined as 1.2 µM.

B2: A156S mutant HCV NS3 serine protease domain, genotype 1b (protein)
chain: B1 chain with A156S, V168D
Take B2: in data set [3], the Kcat was 0.6 s⁻¹, the Kcat/Km came out at 664000 M⁻¹ s⁻¹ and the Km was 0.9 µM.

B3: D168A mutant HCV NS3 serine protease domain, genotype 1b (protein)
chain: B1 chain with V168A
Regarding B3, in data set [3], the Kcat turned out to be 0.3 s⁻¹, the Kcat/Km was found to be 150000 M⁻¹ s⁻¹ and the Michaelis-Menten constant (Km) was determined as 2 µM.

B4: A156V mutant HCV NS3 serine protease domain, Con1 strain (protein)
chain: B1 chain with A156V, V168D
Consider B4, for which, in data set [3], the Km amounted to 2.6 µM, the kcat amounted to 0.6 s⁻¹ and the kcat/Km stood at 234000 M⁻¹ s⁻¹.

B5: A156T mutant HCV NS3 serine protease domain, Con1 strain (protein)
chain: B1 chain with A156T, V168D
In the case of B5, in data set [3], the Km was found to be 1.3 µM, the catalytic constant (kcat) was 0.2 s⁻¹ and the kcat/Km is 136000 M⁻¹ s⁻¹.

B6: wild type HCV NS3 serine protease domain, genotype 1b (Con1), residues Ala1-Ser181 with a C-terminal hexa-histidine tag (protein)
chain: B1 chain with V168D
Regarding B6, the “kinetic parameters for the FRET substrate” value in data set [4] was “Although the NS4A peptide co-factor was from HCV genotype 1a, no discernable difference in the kinetic parameters was observed”. In data set [3], the Kcat came out at 1 s⁻¹, the Kcat/Km was 947000 M⁻¹ s⁻¹, the Michaelis constant (Km) stood at 1.1 µM and the kcat was determined as 1 s⁻¹. The catalytic efficiency (kcat/Km) in data set [3] came out at 947000 M⁻¹ s⁻¹.
